The data set addresses pro-uPA (pro-urokinase-type plasminogen activator, single-chain zymogen form of uPA), P00749.

B1: Lys-plasmin (protein)
chain: KVYLSECKTGNGKNYRGTMSKTKNGITCQKWSSTSPHRPRFSPATHPSEGLEENYCRNPDNDPQGPWCYTTDPEKRYDYCDILECEEECMHCSGENYDGKISKTMSGLECQAWDSQSPHAHGYIPSKFPNKNLKKNYCRNPDRELRPWCFTTDPNKRWELCDIPRCTTPPPSSGPTYQCLKGTGENYRGNVAVTVSGHTCQHWSAQTPHTHNRTPENFPCKNLDENYCRNPDGKRAPWCHTTNSQVRWEYCKIPSCDSSPVSTEQLAPTAPPELTPVVQDCYHGDGQSYRGTSSTTTTGKKCQSWSSMTPHRHQKTPENYPNAGLTMNYCRNPDADKGPWCFTTDPSVRWEYCNLKKCSGTEASVVAPPPVVLLPDVETPSEEDCMFGNGKGYRGKRATTVTGTPCQDWAAQEPHRHSIFTPETNPRAGLEKNYCRNPDGDVGGPWCYTTNPRKLYDYCDVPQCAAPSFDCGKPQVEPKKCPGRVVGGCVAHPHSWPWQVSLRTRFGMHFCGGTLISPEWVLTAAHCLEKSPRPSSYKVILGAHQEVNLEPHVQEIEVSRLFLEPTRKDIALLKLSSPAVITDKVIPACLPSPNYVVADRTECFITGWGETQGTFGAGLLKEAQLPVIENKVCNRYEFLNGRVQSTELCAGHLAGGTDSCQGDSGGPLVCFEKDKYILQGVTSWGLGCARPNKPGVYVRVSRFVTWIEGVMRNN
Take B1: the “cleavage of pro-uPA (SDS-PAGE, 1.5 uM pro-uPA, 15 nM plasmin)” value is “cleavage of pro-uPA by plasmin generated identical fragments and with a time-course similar to hepsin”; the k (first-order rate constant of pro-uPA activation) turned out to be 0.0815 min⁻¹; the kcat/Km of pro-uPA activation is 453000 M⁻¹ s⁻¹.

B2: matriptase protease domain (protein)
chain: VVGGTDADEGEWPWQVSLHALGQGHICGASLISPNWLVSAAHCYIDDRGFRYSDPTQWTAFLGLHDQSQRSAPGVQERRLKRIISHPFFNDFTFDYDIALLELEKPAEYSSMVRPICLPDASHVFPAGKAIWVTGWGHTQYGGTGALILQKGEIRVINQTTCENLLPQQITPRMMCVGFLSGGVDSCQGDSGGPLSSVEADGRIFQAGVVSWGDGCAQRNKPGVYTRLPLFRDWIKENTGV
On to B2, for which the k (first-order rate constant of pro-uPA activation) amounted to 0.0142 min⁻¹ and the kcat/Km of pro-uPA activation turned out to be 79000 M⁻¹ s⁻¹.

Source of the values: patent US20100061996.
